Source: patent US20120207760A1

Assays:
Details in all cases: remark: other sources report otherwise
[1] = target: recombinant homotrimeric HA, A/swine/Ontario/01911-2/99 H4N6 (Influenza A virus A/swine/Ontario/01911-2/99 (H4N6)); assay: trimeric HA microarray, transfection set 3
[2] = target: recombinant homotrimeric HA, A/Hong Kong/1073/99 H9N2 (Influenza A virus A/Hong Kong/1073/99 (H9N2)); assay: trimeric HA microarray, transfection set 3
[3] = target: T1, recombinant homotrimeric HA, A/Vietnam/1203/04 H5N1 (Influenza A virus A/Vietnam/1203/04 (H5N1)); assay: trimeric HA microarray, transfection set 3
[4] = target: T2, recombinant homotrimeric HA, A/Wisconsin/67/05 H3N2 (Influenza A virus A/Wisconsin/67/05 (H3N2)); assay: trimeric HA microarray, transfection set 3
[5] = target: recombinant homotrimeric HA, A/northern shoveler/California/HKWF115/07 (Influenza A virus A/northern shoveler/California/HKWF115/2007 (H6N1)); assay: trimeric HA microarray, transfection set 3
[6] = target: T3, recombinant homotrimeric HA, A/Solomon Islands/3/06 H1N1 (Influenza A virus A/Solomon Islands/3/06 (H1N1)); assay: trimeric HA microarray, transfection set 3
[7] = target: T4, recombinant homotrimeric HA, A/Japan/305/57 H2N2 (Influenza A virus A/Japan/305/57 (H2N2)); assay: trimeric HA microarray, transfection set 3
[8] = target: T5, recombinant homotrimeric HA, A/California/4/09 H1N1 (Influenza A virus A/California/4/09 (H1N1)); assay: trimeric HA microarray, transfection set 3
[9] = target: recombinant homotrimeric HA, A/Egypt/3300-NAMRU3/08 H5N1 (Influenza A virus A/Egypt/3300-NAMRU3/08 (H5N1)); assay: trimeric HA microarray, transfection set 3
[10] = target: recombinant homotrimeric HA, A/duck/Yangzhou/02/05 H8N4 (Influenza A virus A/duck/Yangzhou/02/2005 (H8N4)); assay: trimeric HA microarray, transfection set 3
[11] = target: T6, recombinant homotrimeric HA, A/Indonesia/5/05 H5N1 (Influenza A virus A/Indonesia/5/05 (H5N1)); assay: trimeric HA microarray, transfection set 3
[12] = target: recombinant homotrimeric HA, A/Hong Kong/2108/03 H9N2 (Influenza A virus A/Hong Kong/2108/03 (H9N2)); assay: trimeric HA microarray, transfection set 3
[13] = target: T7, recombinant homotrimeric HA, A/South Carolina/1/18 H1N1 (Influenza A virus A/South Carolina/1/18 (H1N1)); assay: trimeric HA microarray, transfection set 3
[14] = target: recombinant homotrimeric HA, A/common magpie/Hong Kong/5052/07 H5N1 (Influenza A virus A/common magpie/Hong Kong/5052/07 (H5N1)); assay: trimeric HA microarray, transfection set 3
[15] = target: recombinant homotrimeric HA, A/chicken/Vietnam/NCVD-016/08 H5N1 (Influenza A virus A/chicken/Vietnam/NCVD-016/08 (H5N1)); assay: trimeric HA microarray, transfection set 3
[16] = target: recombinant soluble homotrimeric HA of A/Vietnam/1203/04 (H5N1) (Influenza A virus A/Vietnam/1203/04 (H5N1)); assay: microarray, BCC supernatant IgG, trimeric HA
[17] = target: recombinant soluble homotrimeric HA of A/Hong Kong/2108/03 (H9N2) (Influenza A virus A/Hong Kong/2108/03 (H9N2)); assay: microarray, BCC supernatant IgG, trimeric HA
[18] = target: recombinant soluble homotrimeric HA of A/California/4/09 (H1N1) (Influenza A virus A/California/4/09 (H1N1)); assay: microarray, BCC supernatant IgG, trimeric HA
[19] = target: recombinant soluble homotrimeric HA of A/Wisconsin/67/05 (H3N2) (Influenza A virus A/Wisconsin/67/05 (H3N2)); assay: microarray, BCC supernatant IgG, trimeric HA
[20] = target: recombinant soluble homotrimeric HA of A/duck/Yangzhou/02/05 (H8N4) (Influenza A virus A/duck/Yangzhou/02/2005 (H8N4)); assay: microarray, BCC supernatant IgG, trimeric HA
[21] = target: recombinant soluble homotrimeric HA of A/Japan/305/57 (H2N2) (Influenza A virus A/Japan/305/57 (H2N2)); assay: microarray, BCC supernatant IgG, trimeric HA
[22] = target: recombinant soluble homotrimeric HA of A/Solomon Islands/3/06 (H1N1) (Influenza A virus A/Solomon Islands/3/06 (H1N1)); assay: microarray, BCC supernatant IgG, trimeric HA
[23] = target: recombinant soluble homotrimeric HA of A/swine/Ontario/01911-2/99 (H4N6) (Influenza A virus A/swine/Ontario/01911-2/99 (H4N6)); assay: microarray, BCC supernatant IgG, trimeric HA
[24] = target: recombinant soluble homotrimeric HA of A/chicken/Vietnam/NCVD-016/08 (H5N1) (Influenza A virus A/chicken/Vietnam/NCVD-016/08 (H5N1)); assay: microarray, BCC supernatant IgG, trimeric HA
[25] = target: recombinant soluble homotrimeric HA of A/northern shoveler/California/HKWF115/07 (Influenza A virus A/northern shoveler/California/HKWF115/2007); assay: microarray, BCC supernatant IgG, trimeric HA
[26] = target: recombinant soluble homotrimeric HA of A/Egypt/3300-NAMRU3/08 (H5N1) (Influenza A virus A/Egypt/3300-NAMRU3/08 (H5N1)); assay: microarray, BCC supernatant IgG, trimeric HA
[27] = target: recombinant soluble homotrimeric HA of A/Anhui/1/05 (H5N1) (Influenza A virus A/Anhui/1/05 (H5N1)); assay: microarray, BCC supernatant IgG, trimeric HA
[28] = target: recombinant soluble homotrimeric HA of A/Indonesia/5/05 (H5N1) (Influenza A virus A/Indonesia/5/05 (H5N1)); assay: microarray, BCC supernatant IgG, trimeric HA
[29] = target: T2, recombinant homotrimeric HA, …; assay: trimeric HA microarray, transfection set 5
[30] = target: T3, recombinant homotrimeric HA, A/Solomon …; assay: trimeric HA microarray, transfection set 5
[31] = target: T4, recombinant homotrimeric HA, …; assay: trimeric HA microarray, transfection set 5
[32] = target: T5, recombinant homotrimeric HA, …; assay: trimeric HA microarray, transfection set 5
[33] = target: T6, recombinant homotrimeric HA, …; assay: trimeric HA microarray, transfection set 5
[34] = target: T7, recombinant homotrimeric HA, A/South …; assay: trimeric HA microarray, transfection set 5
[35] = target: recombinant soluble homotrimeric HA of A/Netherlands/219/03 (H7N7) (Influenza A virus A/Netherlands/219/03 (H7N7)); assay: microarray, BCC supernatant IgG, trimeric HA
[36] = target: recombinant soluble homotrimeric HA of A/northern shoveler/California/HKWF115/2007 - H6N1 (Influenza A virus A/northern shoveler/California/HKWF115/2007 (H6N1)); assay: micro-array; captured IgG, V5-tagged trimeric HA
[37] = target: recombinant soluble homotrimeric HA of A/Anhui/1/05 - H5N1 (Influenza A virus A/Anhui/1/2005 (H5N1)); assay: micro-array; captured IgG, V5-tagged trimeric HA
[38] = target: recombinant soluble homotrimeric HA of A/Hong Kong/156/97 - H5N1 (Influenza A virus A/Hong Kong/156/97 (H5N1)); assay: micro-array; captured IgG, V5-tagged trimeric HA
[39] = target: hemagglutinin (HA) of influenza A/Japan/305/57 H2N2 (Influenza A virus A/Japan/305/1957 (H2N2)), P03451; assay: ELISA, inactivated whole virions coated; transfection supernatant set 5
[40] = target: T1, recombinant homotrimeric HA, …; assay: trimeric HA microarray, transfection set 5

B1: TCN-533 (5256_A17) (antibody, V domains shown)
VH: QVQLVQSGADVKKPGSSVTVSCKASGGSFSNYGINWVRQAPGQGLEWMGGIIPLINAPNYAPKFQGRVTITADMFSNIVSLQLTSLRTDDTAVYYCARRKMTTAIDYWGQGTLVTVSS
VL: QPVLSQPPSASASLGASVTLTCTLSSGFDNYQVAWYQQRPGKGPRFVMRVGNGGNVASKGDGIPDRFSVSGSGLNRYLTIKNIQEDDESDYYCGADHGSGNNFVSPYVFGGGTKLTVL
[1]
  Trimeric HA Binding RLU: 180 RLU
[2]
  Trimeric HA Binding RLU: 23800 RLU
[3]
  Trimeric HA Binding RLU: 11700 RLU
[4]
  Trimeric HA Binding RLU: 16100 RLU
[5]
  Trimeric HA Binding RLU: 7810 RLU
[6]
  Trimeric HA Binding RLU: 15500 RLU
[7]
  Trimeric HA Binding RLU: 18600 RLU
[8]
  Trimeric HA Binding RLU: 6880 RLU
[9]
  Trimeric HA Binding RLU: 18600 RLU
[10]
  Trimeric HA Binding RLU: 711 RLU
[11]
  Trimeric HA Binding RLU: 28300 RLU
[12]
  Trimeric HA Binding RLU: 33 RLU
[13]
  Trimeric HA Binding RLU: 16400 RLU
[14]
  Trimeric HA Binding RLU: 25200 RLU
[15]
  Trimeric HA Binding RLU: 24600 RLU
[16]
  Trimeric HA Binding: RLU: 5680 RLU
[17]
  Trimeric HA Binding: RLU: 172 RLU
[18]
  Trimeric HA Binding: RLU: 29300 RLU
[19]
  Trimeric HA Binding: RLU: 13800 RLU
[20]
  Trimeric HA Binding: RLU: 24700 RLU
[21]
  Trimeric HA Binding: RLU: 10800 RLU
[22]
  Trimeric HA Binding: RLU: 39200 RLU
[23]
  Trimeric HA Binding: RLU: 1580 RLU
[24]
  Trimeric HA Binding: RLU: 47700 RLU
[25]
  Trimeric HA Binding: RLU: 41400 RLU
[26]
  Trimeric HA Binding: RLU: 34300 RLU
[27]
  Trimeric HA Binding: RLU: 8060 RLU
[28]
  Trimeric HA Binding: RLU: 44100 RLU

B2: TCN-538 (3206_O17) (antibody, V domains shown)
VH: QITLKESGPTLVKPTQTLTLTCVFSGFSLSITGVRVGWIRQPPGKALEWLALISWDDEKHYSPSLQSRLTITKDTSKNQVVLTMTNLDPVDTATYYCARSTDRGHVLRYFGWMLPGDAFDVWGQGTMVTVSS
VL: DIVMTQSPDFLPVSLGERATINCKSSQRVLYSSNNKNYLAWYQLKPGQPPKLIIYWASTRESGVPDRFSGSGSGTEFTLTISSLQAEDVAVYYCQQYYSRPYTFGQGTKLEIK
[29]
  Trimeric HA Binding RLU: 2070 RLU
[30]
  Trimeric HA Binding RLU: 1960 RLU
[31]
  Trimeric HA Binding RLU: 6620 RLU
[32]
  Trimeric HA Binding RLU: 16000 RLU
[33]
  Trimeric HA Binding RLU: 13700 RLU
[34]
  Trimeric HA Binding RLU: 8430 RLU
[35]
  Trimeric HA Binding: RLU: 6530 RLU

B3: TCN-545 (5082_I15) (antibody, V domains shown)
VH: QVQLQQWGAGLLKPSETLSLSCAVFGGSFSDYYWTWIRQPPGKGLEWIGEIKHSGRTNYNPSLESRVTISVDTSKNQFSLKLSSVTAADTAIYYCARGTDPDTEGYCRSGSCSAFDFWGQGTLVTVSS
VL: EIVLTQSPGTLSLSPGERATLSCRASHFVNYRSLAWYQQTPGQVPRLLIYGASTRATGIPDRFSGSGSGTDFTLTISRLEPEDFAVYFCQQYGGSPRYTFGQGTRLEIK
[36]
  Trimeric HA Binding: RLU: 2320 RLU
[37]
  Trimeric HA Binding: RLU: 4880 RLU
[38]
  Trimeric HA Binding: RLU: 1560 RLU
[29]
  Trimeric HA Binding RLU: 32000 RLU
[31]
  Trimeric HA Binding RLU: 1360 RLU
[32]
  Trimeric HA Binding RLU: 818 RLU
[33]
  Trimeric HA Binding RLU: 5270 RLU
[34]
  Trimeric HA Binding RLU: 900 RLU
[25]
  Trimeric HA Binding: RLU: 1170 RLU

B4: TCN-551 (5243_D01) (antibody, V domains shown)
VH: EVQLVQSGSEVKKPGESLKISCKGSGYSFSNYWIGWVRHMPGKGLEWMGIIYPGDSDTRYSPSFQGQVTMSADKSSSTVYLQWSSLKASDTAIYYCARRGGHSFGYGSGGDTHSEFDSWGQGTLVTVSS
VL: QSVLTQSPSVSAAPGQKVTISCSGSDSNIGDYFVCWYQHLPGKPPQLLIYENNKRPSGIPDRFSGSKSGTSATLGITGIQTGDEADYYCATWDGSLSAWVFGGGTKLTVL
[39]
  OD450: 0.1 OD450
[40]
  Trimeric HA Binding RLU: 41900 RLU
[29]
  Trimeric HA Binding RLU: 936 RLU
[30]
  Trimeric HA Binding RLU: 43500 RLU
[31]
  Trimeric HA Binding RLU: 25200 RLU
[32]
  Trimeric HA Binding RLU: 46100 RLU
[34]
  Trimeric HA Binding RLU: 4340 RLU
[24]
  Trimeric HA Binding: RLU: 42300 RLU
[25]
  Trimeric HA Binding: RLU: 52500 RLU
